Measurements reported in paper PMC12839305 (2025).

Target: T1, RVFV glycoprotein Gn head domain (154–469 aa) (Rift Valley fever virus, UniProt P21401 154-469)
T1 chain: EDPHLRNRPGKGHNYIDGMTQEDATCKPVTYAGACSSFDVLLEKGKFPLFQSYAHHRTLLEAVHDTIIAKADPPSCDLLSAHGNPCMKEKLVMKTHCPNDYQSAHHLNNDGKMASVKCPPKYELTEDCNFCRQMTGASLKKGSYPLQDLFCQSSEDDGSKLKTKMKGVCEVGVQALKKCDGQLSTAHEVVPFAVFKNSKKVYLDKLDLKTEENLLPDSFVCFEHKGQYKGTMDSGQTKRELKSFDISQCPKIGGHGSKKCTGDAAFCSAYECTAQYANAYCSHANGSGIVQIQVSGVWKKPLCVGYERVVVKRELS
Assay: BLI

B1: LRP1 single complement-type repeat CR25 fused to human Fc (Fc fusion)
chain: not shown
With B1 the Kd was 67 nM.
